Test results: patent publication EP4248993A1 (Charité - Universitätsmedizin Berlin, dated 2023)

Molecular target: MERS-CoV RBD Twin-Strep His (wild type, G372-L588) (MERS-CoV)
Assay: serum pull-down with RBD-TwinStrep on streptavidin magnetic beads

B1: circulating mouse DPP4 (from serum) (receptor)
chain: SRRTYSLADYLKSTFRVKSYSLWWVSDFEYLYKQENNILLLNAEHGNSSIFLENSTFESFGYHSVSPDRLFVLLEYNYVKQWRHSYTASYNIYDVNKRQLITEEKIPNNTQWITWSPEGHKLAYVWKNDIYVKVEPHLPSHRITSTGEENVIYNGITDWVYEEEVFGAYSALWWSPNNTFLAYAQFNDTGVPLIEYSFYSDESLQYPKTVWIPYPKAGAVNPTVKFFIVNIDSLSSSSSAAPIQIPAPASVARGDHYLCDVVWATEERISLQWLRRIQNYSVMAICDYDKINLTWNCPSEQQHVEMSTTGWVGRFRPAEPHFTSDGSSFYKIISDKDGYKHICHFPKDKKDCTFITKGAWEVISIEALTSDYLYYISNQYKEMPGGRNLYKIQLTDHTNVKCLSCDLNPERCQYYAVSFSKEAKYYQLGCWGPGLPLYTLHRSTDHKELRVLEDNSALDRMLQDVQMPSKKLDFIVLNETRFWYQMILPPHFDKSKKYPLLLDVYAGPCSQKADASFRLNWATYLASTENIIVASFDGRGSGYQGDKIMHAINRRLGTLEVEDQIEAARQFVKMGFVDSKRVAIWGWSYGGYVTSMVLGSGSGVFKCGIAVAPVSRWEYYDSVYTERYMGLPIPEDNLDHYRNSTVMSRAEHFKQVEYLLIHGTADDNVHFQQSAQISKALVDAGVDFQAMWYTDEDHGIASSTAHQHIYSHMSHFLQQCFSLH
B1: no binding.
